{
  "source": "patent US20050079613",
  "test_system": "three human E2 enzymes UbCH2, UbCH3 and UbCH5a (at least one of these three enzymes)",
  "data": [
    {"substance": "GST fusion of the MARCH-VIII RING-CH domain", "values": [
      {"measurement": "formation of high-molecular weight ubiquitin complexes in vitro (anti-ubiquitin blot)", "value": "The RiNG-CH-GST fusion proteins of all four MARCH-proteins tested were able to catalyze the formation of high-molecular weight molecular ubiquitin complexes in the presence of at least one of these three enzymes"}
    ]}
  ]
}
